One molecule from US7393670B2, “Tyrosyl-tRNA synthetase variants” (Japan Science and Technology Agency, priority 2001, dated 2008) can be followed below.

Holding throughout (format): biochemical
A short description of test [1]: Aminoacylation activity by Lloyd's method (release of pyrophosphates). Here is the method:
In the second method, Lloyd's method (Nucleic Acids Research, 23:2886-2892, 1995) was carried out without alteration.
In the second method, the activity was assayed by Lloyd's method (Nucleic Acids Research, 23:2886-2892, 1995). Each enzyme obtained was incubated with 0.4 ml of the buffer B containing 1 mM ATP (Seikagaku Corporation), 100 μM purified crude tyrosyl-tRNA, 200 μM tyrosine or 3-iodotyrosine at 37° C. for 6 min. The aminoacylation activity was represented as concentrations of released phosphate per min.

Test [2] deals with wheat germ cell-free translation system. Put plainly: Amber suppression in wheat germ cell-free protein synthesis system (c-H-Ras, 32nd codon amber). From the text: Production of the protein containing iodotyrosine was attempted by the reaction by a batch method in a wheat germ cell-free protein synthesis system using the resultant VC and an amber suppressor tRNA derived from tyrosine tRNA of E. coli. A short chain type of c-H-Ras added His-tag at the C-terminus via a spacer sequence (Milburn et al., Science 247:939-45, 1990) was used as the target protein. In translation where the template was mRNA made from a construction where the 32nd codon of this protein was replaced by the amber codon, the production of the protein in full length was dependent on coexistence of both TyrRS and the suppressor tRNA (FIG. 2). This proves that the suppressor tRNA used is scarcely aminoacylated by the endogenous aminoacyl-tRNA synthetase in the wheat germs. A synthetic quantity by the amber suppression was 30 to 40% of that of a control with no amber codon. In order to increase the synthetic quantity of the protein, the reaction by the suppression was carried out for 3 days using a dialysis method. […]
The translation reaction was carried out by further adding iodotyrosine at a final concentration of 0.6 mM in addition to the condition of the kit. […] Using an image analyzer FLA-2000 (Fujifilm, Tokyo, Japan), counts of RI of bands on the gel were quantified, or protein bands stained using Cypro-tangerine protein gel stain (Molecular probes) on the gel were quantified.

The subject of test [3] is tyrosine or 3-iodotyrosine for the full-length tRNA. Put plainly: Aminoacylation of full-length tRNA by acidic polyacrylamide gel electrophoresis (Wolfson). Particulars: acidic PAGE; 200 μM amino acid, enzyme 50 nM, 37° C. for 3 min. Here is the method: In the third method, levels of aminoacylation activity in the presence of tyrosine or 3-iodotyrosine for the full-length tRNA were assayed by the same method as. acidic polyacrylamide gel electrophoresis described by Wolfson et al. (Wolfson, A. D. et al., RNA, 4:1019-1023, 1998). The result is shown in FIG. 1 as a photo, substitute for a drawing.
In the third method, the aminoacylation activity for tyrosine or 3-iodotyrosine for tRNA in full length was assayed by the same method as acidic polyacrylamide electrophoresis by the method of Wolfson et al. (Wolfson, A. D. et al., RNA, 4:1019-1023, 1998). Tyrosine or iodotyrosine at 200 μM and the enzyme at 50 nM were incubated at 37° C. for 3 min, and subsequently the electrophoresis was carried out. The result of the aminoacylation activity of the enzymes with double mutations are shown on the photo, substitute for a drawing, in FIG. 1. In FIG. 1, left three lanes are from the wild-type enzyme, middle three lanes are from the enzyme modified at position 37 with valine (37V) and right three lanes are from the enzyme modified at positions 37 and 195 with valine and cysteine (VC), respectively. Three lanes in each group show the case without the addition of the amino acid (w/o aa), the case with the addition of 3-iodotyrosine (200 μM) (1-Tyr), and the case with the addition of tyrosine (200 μM) (Tyr), respectively from the left.

A short description of test [4]: Aminoacylation reaction, simplified Lloyd's method, inorganic phosphate detected with Biomol green. The arrangement: key: ***: the reaction could be detected strongly at 25 nM; **: strongly at 250 nM; *: weakly at 250 nM; the activity is high in the order of *** > ** > * > —. Particulars: Table 3; tyrosine 200 μM; 37° C. for 4 min. Here is the method: In the first method, Lloyd's method (Nucleic Acids Research, 23:2886-2892, 1995) where inorganic phosphate produced by pyrophosphatase-drived hydrolysis of pyrophosphate which was one of the reaction products of the aminoacylation reactions was quantified was simplified, and the inorganic phosphate was detected using Biomol green (Funakoshi) to carry out the measurement of the aminoacylation reaction.
Amino acid concentrations were 200 μM and 1 mM for tyrosine and 3-iodotyrosine, respectively.
The method where the aminoacylation reaction is measured by quantifying inorganic phosphate produced by pyrophosphatase-drived hydrolysis of pyrophosphate which is one of reaction products of the aminoacylation has been described by Lloyd et al. (Nucleic Acids Research, 23:2886-2892, 1995). In one method of the invention, this method was simplified and the aminoacylation reaction was measured by the detection of inorganic phosphate using Biomol green (Funakoshi). […] To stop the reaction, 0.1 ml of Bio mol green was added. Absorbance of its supernatant was measured at 630 nm.

B1: VC: E. coli TyrRS double variant: position 37 Valine, position 195 Cysteine (protein, UniProt P0AGJ9 2-424, looked up, variant Y37V Q195C)
Tyrosine--tRNA ligase: ASSNLIKQLQERGLVAQVTDEEALAERLAQGPIALVCGFDPTADSLHLGHLVPLLCLKRFQQAGHKPVALVGGATGLIGDPSFKAAERKLNTEETVQEWVDKIRKQVAPFLDFDCGENSAIAANNYDWFGNMNVLTFLRDIGKHFSVNQMINKEAVKQRLNREDQGISFTEFSYNLLQGYDFACLNKQYGVVLCIGGSDQWGNITSGIDLTRRLHQNQVFGLTVPLITKADGTKFGKTEGGAVWLDPKKTSPYKFYQFWINTADADVYRFLKFFTFMSIEEINALEEEDKNSGKAPRAQYVLAEQVTRLVHGEEGLQAAKRITECLFSGSLSALSEADFEQLAQDGVPMVEMEKGADLMQALVDSELQPSRGQARKTIASNAITINGEKQSDPEYFFKEEDRLFGRFTLLRRGKKNYCLICWK
Take B1: the “relative tyrosine analogue to tyrosine ratio” value in test [1] (3-iodotyrosine versus tyrosine, from Table 4) is recorded as “more than 10”. For the same molecule, the “Initial velocity of release of pyrophosphates, 3-iodotyrosine” value in test [1] (at 37° C., 200 μM 3-iodotyrosine) worked out at 9.5 nM PPi/min/nM enzyme. For the same molecule, the “Initial velocity of release of pyrophosphates, Tyrosine” value in test [1] (at 37° C., 200 μM tyrosine) was 0.9 nM PPi/min/nM enzyme. The “amber suppression (full-length translation product, SDS-PAGE)” value in test [2] (FIG. 2, 14C-leucine labeled products) is “amber suppression was observed only when both TyrRS-VC variant and suppressor tRNA were present”. Moreover, the “quantity of the production of protein” value in test [2] (dialysis method, 3 days) is ≥ 0.1 mg per ml of reaction solution. In test [3], the “specificity for the tyrosine analogue (attachment of amino acid to tRNA)” value was “high specificity for the tyrosine analogue”. The “Aminoacylation activity, Tyrosine” value in test [4] is on record as “*”.
